Measured values published in patent publication US20120082667A1 (IMMUNAS PHARMA, published 2012).
Substitutions are numbered along the chain they refer to. Where two headings read alike, the source gives them in different places.

Assays:
[1] = target: T1, synthesized A beta1-42 (UniProt P05067 672-713); assay: dot blot, synthesized A beta1-42 spotted, hybridoma supernatant
T1 construct: domain: A beta1-42; spotted in the dot blot as the second of the two types of oligomers; also called A beta42 oligomer
Experimental: (§1) Dot blot analysis was carried out for hybridomas that gave positive result for primary screening. […] The membrane was blocked with Tris Buffer containing 5% low-fat milk and 0.05% Tween-20, and reacted with hybridoma culture supernatants and detected with chemiluminescence kit (ECL) after reacting with HRP-conjugated anti-mouse IgG antibody.

[2] = target: T1, synthesized A beta1-42; assay: dot blot: peptide spotted on nitrocellulose (0.1 micro g/dot), hybridoma culture supernatant, HRP anti-mouse IgG, ECL
Experimental: as §1

[3] = target: T2, A beta oligomer prepared from synthetic A beta1-40 (HCl form), 0.1 mg/ml in PBS, incubated at 37 degrees C … (UniProt P05067 672-711); assay: SPR, Biacore 3000, A beta1-40 oligomer on CM5 chip, antibody as analyte at five concentrations
T2 construct: domain: A beta1-40; non-fibrous assembly of A beta1-40; also called A beta1-40 oligomer; A beta40 oligomer
Experimental: The analysis was carried out by Surface Plasmon Resonance (SPR) using Biacore 3000 (GE Healthcare Sciences).

[4] = target: T3, A beta monomer prepared from synthetic A beta1-40 (TFA form), 0.1 mg/ml in PBS (UniProt P05067 672-711); assay: competitive ELISA: antibody pre-incubated with soluble A beta1-40 monomer (inhibitor, varied), then binding to immobilised A beta1-40 oligomer read as OD450
T3 construct: domain: A beta1-40; also called A beta1-40 monomer; A beta40 monomer

[5] = target: T2, A beta oligomer prepared from synthetic …; assay: competitive ELISA: antibody pre-incubated with soluble A beta1-40 oligomer (inhibitor, varied), then binding to immobilised A beta1-40 oligomer read as OD450
[6] = target: T3, A beta monomer prepared from synthetic …; assay: competitive ELISA: antibody pre-incubated with soluble A beta1-40 monomer (inhibitor, varied), then binding to immobilised A beta1-40 oligomer read as OD450; remark: listed apart in the source
[7] = target: T2, A beta oligomer prepared from synthetic …; assay: competitive ELISA: antibody pre-incubated with soluble A beta1-40 oligomer (inhibitor, varied), then binding to immobilised A beta1-40 oligomer read as OD450; remark: listed apart in the source

B1: AL-205 antibody (antibody, IgG2a, V domains shown)
VH: EVKLEESGGGLVQPGGSMKLSCVASGFTFSNYWMNWVRQSPEKGLEWVAEIRLKSNNYATHYAESVKGRFTISRDDSKSSVYLQMNNLRAEDTGIYYCTRGTRVWLRREAWFAYWGQGTLVTVSA
VL: not shown
- binding result [1]: binds

B2: AL-202 antibody (antibody, IgG2a, V domains shown)
VH: EVQLVESGGDLVKPGGSLKLSCAASGFTFSSYGMSWVRQTPDKRLEWVATISSGGSYTYYPDSVKGRFTISRDNAKNTLYLQMSSLKSEDTAMYYCARPLYYRHGVFAYWGQGTLVTVSA
VL: DVQITQSPSYLAASPGETITINCRASKSISKYLAWYQEKPGKTNKLLIYSGSTLQSGIPSRFSGSGSGTDFTLTISSLEPEDFAMYYCQQHNEYPWTFGGGTKLEIK
- binding result [2]: binds

B3: AL-224 antibody (antibody, IgG2a, V domains shown)
VH: DVQLVESGGGLVQPGGSRKLSCAASGFTFSSFGMHWVRQAPEKGLEWVAYISSGSSTIYYADTVKGRFTISRDNPKNTLFLQMTSLRSEDTAMYYCARYGNYAMDYWGQGTSVTVSS
VL: DVLMTQTPLSLPVSLGDQASISCRSSQSIVHSNGNTYLEWYLQKPGQSPKLLIYKVSNRFSGVPDRFSGSGSGTDFTLKIGRVEAEDLGVYYCFQGSHVPPTFGGGTELEIK
- Kd [3]: 544 nM
- koff [3]: 0.155 s⁻¹
- kon [3]: 285000 M⁻¹ s⁻¹

B4: AL-209 antibody (antibody, IgG2a, V domains shown)
VH: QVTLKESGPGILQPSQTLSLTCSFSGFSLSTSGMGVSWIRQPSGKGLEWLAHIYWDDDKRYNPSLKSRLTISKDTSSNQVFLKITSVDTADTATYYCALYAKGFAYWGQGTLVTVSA
VL: DIQMTQSPSSLSASLGGKVTITCKASQDINKYIAWYQHKPGKGPRLLIHYTSTLQPGIPSRFSGSGSGRDYSFSISNLEPEDIATYYCLQYDNLYTFGGGTKLEIK
- binding result [4]: binds
- binding result [5]: binds
- binding result [2]: binds

B5: AL-206 antibody (antibody, IgG2b, V domains shown)
VH: DVQLQESGPGLVKPSQSLSLACTVTGYSITSDYAWNWIRQFPGNKLEWLGYISYSGTTRYNPSLKSRISITRDTSKNQFFLQLNSVTTEDTATYYCAIYGSSYYWYFDVWGAGTTVTVSS
VL: QIVLTQSPAIMSASLGERVTMTCTASSSVSSSYLHWYQQKPGSSPKLWIYSTSNLASGVPARFSGSGSGTSYSLTISSMEAEDAATYYCHQYHRSPPTFGAGTKLELK
- binding result [2]: binds

B6: AL-208 antibody (antibody, IgG2b, V domains shown)
VH: QVQLQQPGAELVKPGASVKLSCKASGYTFTSYWMHWVKQRPGQGLEWIGEINPSNGRTNYNEKFKSKATLTVDKSSSTAYMQLSSLTSEDSAVYYCARQGYRHGVFAYWGQGTLVTVSA
VL: B5 VL
- binding result [2]: binds

B7: AL-207 antibody (antibody, IgG2b, V domains shown)
VH: QVTLKESGPGILKPSQTLSLTCSFSGFSLSTSGMGVGWIRQPSGKGLEWLAHIWWDDDEYYNPSLKSQLTISKDTTRNQVFLKITSVDTADTATYYCARRAIHYYGYDAMDYWGQGTSVTVSS
VL: B5 VL
- binding result [2]: binds

B8: AL-211 antibody (antibody, IgG2b, V domains shown)
VH: QVTLKESGPGILKPSQTLSLTCSFSGFSLSTSGMGVGWIRQPSGKGLEWLAHIWWDDDKYYNPSLKSQLTISKDTSRNQVFLKITSVDTADTATYYCARRSLSRDYFDYWGQGTTLTVSS
VL: DVVMTQTPLSLPVSLGDQASISCRSSQSLVHSNGNTYLHWYLQKPGQSPKLLIYKVSNRFSGVPDRFSGSGSGTDFTLKISRVEAEDLGVYFCSQSTHVPLTFGAGTKLELK
- binding result [2]: binds

B9: AL-213 antibody (antibody, IgG2b, V domains shown)
VH: QVQLKQSGPGLVQPSQSLSITCTVSGFSLTSYGVHWVRQSPGKGLEWLGVIWRGGSTDYNAAFMSRLSITKDNSKSQVFFKMNSLQADDTAIYYCANNRYERGGYYAMDYWGQGTSVTVSS
VL: B3 VL with Q43H, G81S, P101L, G105A, E108K, I111L
- binding result [2]: binds

B10: AL-231 antibody (antibody, IgG2a, V domains shown)
VH: B8 VH with S101A, S103N, R104W, Y106V
VL: B3 VL with G81S, P101L, G105A, E108K, I111L
- binding result [6]: binds
- binding result [7]: binds
- binding result [2]: binds

B11: AL-226 antibody (antibody, IgG2b, V domains shown)
VH: not shown
VL: B8 VL
- binding result [2]: binds

B12: AL-212 antibody (antibody, IgG2b, V domains shown)
VH: QVTLKESGPGILKPSQTLSLTCSFSGFSLSTSGMGVGWIRQPSGKGLEWLAHIWWDDDKYYNPSLKSQLTISKDTSRNQVFLKITSVDTADTATYYCAPSTMITTFAYWGQGTLVTVSA
VL: B8 VL
- binding result [2]: binds

B13: AL-228 antibody (antibody, IgG2a, V domains shown)
VH: QVTLKESGPGILKPSQTLSLTCSFSGFSLSTSGMGVGWIRQPSGKGLEWLAHIWWDDDKYYNPSLKSRLTISKDTSRNQVFLKITSVDTADTATYYCTRRALLRLQGDYFDYWGQGTTLTVSS
VL: B3 VL with G81S, P101L, G105A, E108K, I111L
- binding result [2]: binds

B14: AL-222 antibody (antibody, IgG2b, V domains shown)
VH: B7 VH with S32A, E59K, T76S, A101G, I102L, H103Y, Y105G, G106N
VL: B3 VL with N58T, G81S, H98R, P101L, G105A, E108K, I111L
- binding result [4]: binds
- binding result [5]: binds
- binding result [2]: binds

B15: AL-216 antibody (antibody, IgG2b, V domains shown)
VH: QVQLQQPGAELVKPGASVKLSCKASGYTFTSYWMHWVKQRPGQGLEWIGEINPSNGRTNYNEKFKSKATLTVDKSSSTAYMQLSSLTSEDSAVYYCAREHYYGYGAYWGQGTLVTVSA
VL: B3 VL with G81S, P101L, G105A, E108K, I111L
- binding result [2]: binds

B16: AL-227 antibody (antibody, IgG2a, V domains shown)
VH: not shown
VL: B8 VL
- binding result [2]: binds

B17: AL-223 antibody (antibody, IgG2a, V domains shown)
VH: QVTLKESGPGILKPSQTLSLTCSFSGFSLSTSGMGVGWIRQPSGKGLEWLAHIWWDDDKYYNPSLKSQLTISKDTSRNQVFLKITSVDTADTATYYCARRALITTRDYFDYWGQGTTLTVSS
VL: B3 VL with G81S, P101L, G105A, E108K, I111L
- binding result [4]: binds
- binding result [5]: binds
- binding result [2]: binds

B18: AL-217 antibody (antibody, IgG1, V domains shown)
VH: QVTLKESGPGILQPSQTLSLTCSFSGFSLSTSGMGVSWIRQPSGKGLEWLAHIYWDDDKRYNPSLKSRLTISKDTSSNQVFLKITSVDTADTATYYCARRGPSYYRYRDYFDYWGQGTTLTVSS
VL: B3 VL with G81S, P101L, G105A, E108K, I111L
- Kd [3]: 6.44 nM
- koff [3]: 0.00123 s⁻¹
- kon [3]: 191000 M⁻¹ s⁻¹

B19: AL-214 antibody (antibody, IgG2b, V domains shown)
VH: B9 VH
VL: B3 VL with G81S, P101L, G105A, E108K, I111L
- binding result [2]: binds

B20: AL-220 antibody (antibody, IgG2b, V domains shown)
VH: B15 VH
VL: B3 VL with G81S, P101Y, E108K
- binding result [2]: binds

B21: AL-225 antibody (antibody, IgG2a, V domains shown)
VH: QVTLKESGPGILKPSQTLSLTCSFSGFSLSTSGMGVGWIRQPSGKGLEWLAHIWWDDDKYYNPSLKSQLTISKDTSRNQVFLKITSVDTADTATYYCARRGLIRQDYFDYWGQGTTLTVSS
VL: B3 VL with G81S, P101L, G105A, E108K, I111L
- Kd [3]: 126 nM
- koff [3]: 0.0192 s⁻¹
- kon [3]: 152000 M⁻¹ s⁻¹

B22: AL-233 antibody (antibody, IgG2b, V domains shown)
VH: DVQLQESGPDLVKPSQSLSLTCTVTGYSITSGYSWHWIRQFPGNKLEWMGYIHYSGSTNYNPSLKSRISITRDTSKNQFFLQLNSVTTEDTATYYCARRGYDGYYSWFAYWGQGTLVTVSA
VL: SQAVVTQESALTTSPGETVTLTCRSSTGAVTTSNYANWVQEKPDHLFTGLIGGTNNRAPGVPARFSGSLIGDKAALTITGAQTEDEAIYFCALWYSNHWVFGGGTKLTVLG
- binding result [6]: binds
- binding result [7]: binds
- binding result [2]: binds
